# Test results from paper PMC8102066 (2021).
# B1: HA-SNAP-mGluR3-C127A [modified: SNAP tag labelled with BG-LD555 (BG-LD655 in two-colour SiMPull); SNAP tag labelled with BG-LD555 (BG-LD655 in two-colour SiMPull)] [rat] / itself (parent complex)
# chain: LGDHNFMRREIKIEGDLVLGGLFPINEKGTGTEECGRINEDRGIQRLEAMLFAIDEINKDNYLLPGVKLGVHILDTCSRDTYALEQSLEFVRASLTKVDEAEYMAPDGSYAIQENIPLLIAGVIGGSYSSVSIQVANLLRLFQIPQISYASTSAKLSDKSRYDYFARTVPPDFYQAKAMAEILRFFNWTYVSTVASEGDYGETGIEAFEQEARLRNICIATAEKVGRSNIRKSYDSVIRELLQKPNARVVVLFMRSDDSRELIAAANRVNASFTWVASDGWGAQESIVKGSEHVAYGAITLELASHPVRQFDRYFQSLNPYNNHRNPWFRDFWEQKFQCSLQNKRNHRQVCDKHLAIDSSNYEQESKIMFVVNAVYAMAHALHKMQRTLCPNTTKLCDAMKILDGKKLYKEYLLKINFTAPFNPNKGADSIVKFDTFGDGMGRYNVFNLQQTGGKYSYLKVGHWAETLSLDVDSIHWSRNSVPTSQCSDPCAPNEMKNMQPGDVCCWICIPCEPYEYLVDEFTCMDCGPGQWPTADLSGCYNLPEDYIKWEDAWAIGPVTIACLGFLCTCIVITVFIKHNNTPLVKASGRELCYILLFGVSLSYCMTFFFIAKPSPVICALRRLGLGTSFAICYSALLTKTNCIARIFDGVKNGAQRPKFISPSSQVFICLGLILVQIVMVSVWLILETPGTRRYTLPEKRETVILKCNVKDSSMLISLTYDVVLVILCTVYAFKTRKCPENFNEAKFIGFTMYTTCIIWLAFLPIFYVTSSDYRVQTTTMCISVSLSGFVVLGCLFAPKVHIVLFQPQKNVVTHRLHLNRFSVSGTATTYSQSSASTYVPTVCNGREVLDSTTSSL
# B2: HA-SNAP-mGluR2 [modified: SNAP tag labelled with BG-LD555 (BG-LD655 in two-colour SiMPull); SNAP tag labelled with BG-LD555 (BG-LD655 in two-colour SiMPull)] [rat] / itself (parent complex)
# chain: EGPAKKVLTLEGDLVLGGLFPVHQKGGPAEECGPVNEHRGIQRLEAMLFALDRINRDPHLLPGVRLGAHILDSCSKDTHALEQALDFVRASLSRGADGSRHICPDGSYATHSDAPTAVTGVIGGSYSDVSIQVANLLRLFQIPQISYASTSAKLSDKSRYDYFARTVPPDFFQAKAMAEILRFFNWTYVSTVASEGDYGETGIEAFELEARARNICVATSEKVGRAMSRAAFEGVVRALLQKPSARVAVLFTRSEDARELLAATQRLNASFTWVASDGWGALESVVAGSERAAEGAITIELASYPISDFASYFQSLDPWNNSRNPWFREFWEERFHCSFRQRDCAAHSLRAVPFEQESKIMFVVNAVYAMAHALHNMHRALCPNTTHLCDAMRPVNGRRLYKDFVLNVKFDAPFRPADTDDEVRFDRFGDGIGRYNIFTYLRAGSGRYRYQKVGYWAEGLTLDTSFIPWASPSAGPLPASRCSEPCLQNEVKSVQPGEVCCWLCIPCQPYEYRLDEFTCADCGLGYWPNASLTGCFELPQEYIRWGDAWAVGPVTIACLGALATLFVLGVFVRHNATPVVKASGRELCYILLGGVFLCYCMTFVFIAKPSTAVCTLRRLGLGTAFSVCYSALLTKTNRIARIFGGAREGAQRPRFISPASQVAICLALISGQLLIVAAWLVVEAPGTGKETAPERREVVTLRCNHRDASMLGSLAYNVLLIALCTLYAFKTRKCPENFNEAKFIGFTMYTTCIIWLAFLPIFYVTSSDYRVQTTTMCVSVSLSGSVVLGCLFAPKLHIILFQPQKNVVSHRAPTSRFGSAAPRASANLGQGSGSQFVPTVCNGREVVDSTTSSL
# Variants of: B1
# Assay: SiMPull; SNAP-tagged constructs labeled with LD555; 6 movies; read off a plot
row,Variant,screen value
1,"chain 1 S664A, chain 1 F668A, chain 1 G672A",~74%

# Variants of: B2
# Assay: SiMPull; shaded bar, data repeated from Figure 1F; read off a plot
row,Variant,screen value
1,chain 1 C103A,~91%
